Experimental data taken from publication PMC10141234, “Adjusting Heterodimeric Coiled-Coils (K/E Zipper) to Connect Autophagy-Inducing Peptide with Cell-Penetrating Peptide” (Pharmaceutics, 2023).
pKd: −log10 of the molar value.

Experiments:
[1] = target: E2-CPP (Fam-labelled octaarginine cell-penetrating peptide with two EIAALEK units at its N-terminus); details: scale: LC3-II/actin ratio
[2] = target: E3-CPP (Fam-labelled octaarginine cell-penetrating peptide with three EIAALEK units at its N-terminus); details: scale: LC3-II/actin ratio
Sequence of E3-CPP (Fam-labelled octaarginine cell-penetrating peptide with three EIAALEK units at its N-terminus) (peptide, as listed by the source): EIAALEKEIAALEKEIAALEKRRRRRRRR

[3] = target: E3-CPP (Fam-labelled octaarginine cell-penetrating peptide with three EIAALEK units at its N-terminus); experiment: other fluorescence titration; En-CPP (Fam) fixed at 50 nM, AIP-Kn (Tmr) added to Tmr/Fam ratios 0-2.0; PBS pH 7.0, 25 °C; excitation 495 nm, Fam fluorescence at 525 nm quenched by FRET to Tmr; Kd by fit to equation (1), with the saturation intensity Fs taken from AIP-K4/E4-CPP
[4] = target: E4-CPP (Fam-labelled octaarginine cell-penetrating peptide with four EIAALEK units at its N-terminus); details: scale: LC3-II/actin ratio
Sequence of E4-CPP (Fam-labelled octaarginine cell-penetrating peptide with four EIAALEK units at its N-terminus) (peptide, as listed by the source): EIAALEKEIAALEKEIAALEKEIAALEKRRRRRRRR

[5] = target: E4-CPP (Fam-labelled octaarginine cell-penetrating peptide with four EIAALEK units at its N-terminus); experiment: other fluorescence titration; En-CPP (Fam) fixed at 50 nM, AIP-Kn (Tmr) added to Tmr/Fam ratios 0-2.0; PBS pH 7.0, 25 °C; excitation 495 nm, Fam fluorescence at 525 nm quenched by FRET to Tmr; Kd by fit to equation (1), with the saturation intensity Fs taken from AIP-K4/E4-CPP
[6] = system: HeLa cells; experiment: Intracellular delivery of K/E hybrids by confocal laser microscopy; format: cell-based; details: 10 μM equimolar AIP-Kn/En-CPP mixture, 1 h, 37 °C, conclusion from Fam/Tmr signals
Experimental: HeLa cells were cultured in DMEM supplemented with 10% heat-inactivated FBS in a 5% CO2 incubator at 37 °C. The HeLa cell line has been stocked and propagated in Dr. Masaaki Miyazawa’s laboratory.
AIP-Kn and En-CPP (n = 2, 3, and 4) were dissolved in DMSO at 10 mM each to make a stock peptide solution. The stock solution was diluted to the desired concentration using Opti-MEM. Equal volumes of the diluted AIP-Kn and En-CPP were mixed in a 1.5 mL tube for 1 h with rotation at room temperature to generate hybrids. For single-component controls (AIP-Kn or En-CPP only), equal volumes of the diluted AIP-Kn or En-CPP and Opti-MEM with DMSO, which was added instead of the stock peptide solution, were mixed in a 1.5 mL tube, and the mixture was then treated in a manner similar to that for the hybrid formation. […]
One day before peptide treatment, 1 × 10^5 cells in 2 mL of HeLa cells were seeded on a glass-bottomed dish (Matsunami Glass, Osaka, Japan) and cultured in a 5% CO2 incubator at 37 °C. […] After washing the cells, 2 mL of PBS was added and fluorescence signals from the cells were observed using a confocal laser microscope with a Plan Apo 60× oil-immersion DIC H objective (CLMS; C2si Ready; Nikon, Tokyo, Japan). Data were analyzed using NIS-Elements Advanced research software (Nikon).

Sequence of E2-CPP (Fam-labelled octaarginine cell-penetrating peptide with two EIAALEK units at its N-terminus) (peptide, as listed by the source): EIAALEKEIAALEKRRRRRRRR

AIP-K2 (Tmr-labelled autophagy-inducing peptide with two KIAALKE units at its C-terminus)
autophagy induction in HeLa cells, LC3-II/actin ratio by immunoblot, 10 μM, 3 h, relative to AIP-K3/E3-CPP [1]: 0.08

AIP-K3 (Tmr-labelled autophagy-inducing peptide with three KIAALKE units at its C-terminus)
autophagy induction in HeLa cells, LC3-II/actin ratio by immunoblot, 10 μM, 3 h, the reference of the ratio [2]: 1
pKd [3]: 7.70
stoichiometry N [3]: 1

AIP-K4 (Tmr-labelled autophagy-inducing peptide with four KIAALKE units at its C-terminus)
autophagy induction in HeLa cells, LC3-II/actin ratio by immunoblot, 10 μM, 3 h, relative to AIP-K3/E3-CPP [4]: 0.59
pKd [5]: 8.70
stoichiometry N [5]: 1

Fam-(EIAALEK)2-RRRRRRRR [E2-CPP, octaarginine modified with (EIAALEK)2 at its N-terminus, labeled with fluorescein]
intracellular delivery (translocation into cells) [6]: alone translocates across the plasma membrane
